Assay results published in the supplement of paper PMC7125110.
± gives the standard error. This sample holds only a part of the variants without activity.

B1: glmS ribozyme (parent)
chain: AUAAAAGCGCCAGAACUACAGAAAUGUAGUUGACGAGGAGGAGGUUUAUCGAAUUUUCGGCGGAUGCCUCCAAA

Legend:
Conditions in all cases: with glucosamine-6-phosphate
glucosamine-6-phosphate [1] = variants of: B1; test: self-cleavage kobs at 40 uM GlcN6P; higher = faster cleavage; RNA array
How it was run: (§1)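 Tiles bearing barcoded ribozyme variants, transcribed in situ by E. coli RNA polymerase on sequenced MiSeq chips, were imaged over ~14 h at 37 °C using a hybridised Cy3 probe. Glucosamine-6-phosphate was supplied at 40 μM to 10 mM in HEPES/KCl/Mg(OAc)2 buffer. kobs came from one- or two-exponential decay fits to normalised per-tile medians, and weighted Michaelis–Menten fits then provided kcat and KM.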

glucosamine-6-phosphate [2] = variants of: B1; test: self-cleavage kobs at 640 uM GlcN6P; higher = faster cleavage; RNA array
How it was run: as §1

glucosamine-6-phosphate [3] = variants of: B1; test: self-cleavage kobs at 2500 uM GlcN6P; higher = faster cleavage; RNA array
How it was run: as §1

glucosamine-6-phosphate [4] = variants of: B1; test: self-cleavage kobs at 10000 uM GlcN6P; higher = faster cleavage; RNA array
How it was run: as §1

glucosamine-6-phosphate [5] = variants of: B1; test: self-cleavage kobs at 160 uM GlcN6P; higher = faster cleavage; RNA array
How it was run: as §1

Variant | self-cleavage kobs at 40 uM GlcN6P (glucosamine-6-phosphate [1]) [s⁻¹] | self-cleavage kobs at 640 uM GlcN6P (glucosamine-6-phosphate [2]) [s⁻¹] | self-cleavage kobs at 2500 uM GlcN6P (glucosamine-6-phosphate [3]) [s⁻¹] | self-cleavage kobs at 10000 uM GlcN6P (glucosamine-6-phosphate [4]) [s⁻¹] | self-cleavage kobs at 160 uM GlcN6P (glucosamine-6-phosphate [5]) [s⁻¹]
AUAAAAGCGCCAGAACUACAGAAAUGUACUUGACGAGGAGGAGGUUUAUCGAAUUUUCGGCGGAUGUCUCCAAA [G29C C67U] | 2.43e-05 ± 8.3e-06 | 0.000126 ± 1.3e-05 | 0.000201 ± 2.6e-05 | 0.000975 ± 0.0002 | –
AUAAAAGCGCCAGAACUACAGAAAUGUAAUUGACGAGGAGGAGGUUUAUCAAAUUUUCGGCGGAUGCCUCCAAA [G29A G51A] | < 1e-05 | – | – | < 1e-05 | –
AUAAAAGCGCCAGAACUACAGAAAUGUACUUGACGAGGAGGCCGUUUAUCGAAAUUUCGGCGGAUGCCUCCAAA [G29C A42C G43C U54A] | < 1e-05 | – | – | – | –
AUAAAAGCGCCAGAACUACAGAAAUGUAAUUGACGAGGAGGAGGUUUGGCGAAUUUUCGGCCGAUGCCUCCAAA [G29A A48G U49G G62C] | < 1e-05 | – | < 1e-05 | – | < 1e-05
AUAAAAGCGCCAGAACUACAGAAAUGUAAUUGACGAGAUGGAGGUUUAUCGAAUUUUCGGCGGAUGCCUCCAAA [G29A G38A A39U] | < 1e-05 | < 1e-05 | – | < 1e-05 | –
AUAAAAGCGCCAGAACUACAGAAAUGUACUUGACGAGGAGGAGGUUUAUCGAAUUUUCGGCGGUUGCCUCCAAA [G29C A64U] | < 1e-05 | – | – | – | < 1e-05
AUAAAAGCGCCAGAACUACAGAAAUGUAAUUGACGAGGAGGAGGUUUAUCGAAUUUUCGGCGGAUGCCCCCAAA [G29A U69C] | 6.51e-05 ± 1.6e-05 | 0.000122 ± 2.2e-05 | 0.000105 ± 1.6e-05 | 0.000486 ± 0.00013 | 7e-05 ± 1.3e-05
AUAAAAGCGCCAGAACUACAGAAAUGUAAUUGAUGAGGAGGAGGUUUAUCGAAUUUUCGGCGGAUGCCUCCAAA [G29A C34U] | < 1e-05 | – | – | – | –
AUAAAAGCGCCAGAACUACAGAAAUGUAAUUGGCGCGGAGGAGGCUUAUCGAAUUUUCGGCGGAUGCCUCCAAA [G29A A33G A36C U45C] | < 1e-05 | – | – | – | –
AUAAAAGCGCCAGAACUACAGAAAUGUAAUUGACGGGGAGGAGGUUUAUCGAAUUUUCGGCGGAUGCCUCCAAA [G29A A36G] | < 1e-05 | < 1e-05 | < 1e-05 | – | < 1e-05
AUAAAAGCGCCAGAACUACAGAAAUGUAAUUGACGAGGAGGAGGUUUAUCGAAUGUUCGCCGGAUGCCUCCAAA [G29A U55G G60C] | < 1e-05 | – | – | – | –
AUAAAAGCGCCAGAACUACAGAAAUGUAAUUGACGAGGAGGAGGUUUAUCGAAUUCUCAGCGGAUGCCUCAAAA [G29A U56C G59A C71A] | < 1e-05 | – | – | < 1e-05 | –
AUAAAAGCGCCAGAACUACAGAAAUGUGGUUGACGAGGAGGACGAUUAUCGAAUUUUCGGCGGAUGGCUCCAAA [A28G G43C U45A C67G] | < 1e-05 | – | – | – | –
AUAAAAGCGCCAGAACUACAGAAAUUUAGUGGACGAGGAGGAGUUUUAUUGAAUUUUCGGCGGAUGCCUCCAAA [G26U U31G G44U C50U] | < 1e-05 | – | < 1e-05 | < 1e-05 | –
AUAAAAGCGCCAGAACUACAGAAAUGUAAUUGACGAGGAGGAGGUUUAUCGAUUUUUGGGCGGAUGCCUCCAAA [G29A A53U C58G] | < 1e-05 | – | – | 5.28e-05 ± 2.2e-05 | –
AUAAAAGCGCCAGAACUACAGAAAUGUAAUUGACGAGGCGGAGGUUUAUCGAAUUUUCUGCGGAUGCCUCCAAA [G29A A39C G59U] | < 1e-05 | – | – | – | –
AUAAAAGCGCCAGAACUACAGAAAUGUACUUGACGGGGAGGAGGUUUAUCCAAUUUUCGGCGGAUGCCUCCAAA [G29C A36G G51C] | < 1e-05 | – | – | – | –
